Earlier results on 1 substance are cited in PMC3507713.

The target in the data set is TRAIL (Homo sapiens) (UniProt P50591).
UniProt P50591, sequence (P50591 whole entry): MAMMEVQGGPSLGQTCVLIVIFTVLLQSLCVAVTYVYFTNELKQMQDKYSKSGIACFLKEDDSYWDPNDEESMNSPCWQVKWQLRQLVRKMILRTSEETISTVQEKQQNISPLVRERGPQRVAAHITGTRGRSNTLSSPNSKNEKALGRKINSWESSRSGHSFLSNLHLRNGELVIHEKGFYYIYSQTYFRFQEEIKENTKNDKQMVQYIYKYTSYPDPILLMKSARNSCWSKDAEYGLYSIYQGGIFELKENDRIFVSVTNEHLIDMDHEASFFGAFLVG

The term Kd denotes a measure of binding affinity in units of concentration. Take Osteoprotegerin (from UniProt O00300): the Kd was 400 nM.
